Source: patent publication US20060252116A1 (published 2006)
Ends that are not written are not given here.

Key:
[1] = biological target: T1, αv integrins (as found on HT1080 cells) (UniProt P06756 31-1048); assay: HT1080 cell adhesion to coated human ICAM-4Fc (5 ug/ml); value is for the MIXTURE of SEQ ID NO: 9, 10 and 11, each peptide 750 uM
T1 construct: whole, on cells; also called αv integrin ligand
Description: (§1) Human ICAM-4Fc was coated at a concentration of 5 μg/ml, peptides were used at 750 μM final concentration for each peptide, and each data point is the mean of two independent assays.
(§2) Cell adhesion assays were performed as described in Spring et al. 2001 (supra). Immulon4 96 well plates (Dynex Technologies, Billingshurst, United Kingdom) were coated with 1 μg/well goat-antihuman-Fc (Sigma, Poole, United Kingdom) for 24 hours at 4° C., washed three times with PBS and coated with an Fc fusion ICAM-4 protein for 18 hours at 4° C. before blocking with 0.4% BSA PBS for 2 hours at 22° C. Cells were labelled with 10 μg/ml 2′,7′-bis-(2-carboxyethyl)-5-(and-6-) carboxyfluorescein acetoxymethyl ester in assay buffer (IMEM, 2 mM EGTA, 10 μg/ml human ivIgG) for 15 minutes at 37° C. HT1080 cells were activated with 80 μM phorbol myristate acetate prior to both cells being washed with assay buffer containing 2 mM Mn²⁺. Cells, at 5×10⁴ cells per well, were added to the ICAM-4Fc-coated plates for 30 minutes at 37° C., prior to being given repeated washes in assay buffer and read on a fluorescence microplate reader (excitation 485 nm, emission 530 nm). The percentage of bound cells was calculated after each wash. Peptide inhibition was performed by incubating the cells with 500 μM peptide at 0° C. for 15 minutes ahead of their addition, still in the presence of 500 μM peptide to the ICAM-4Fc coated plates. In peptide inhibition studies the appropriate ICAM-4Fc coating concentration for each cell line was pre-determined by titration of ICAM-4Fc and the lowest concentration at which maximal binding was achieved was used to coat the plates

[2] = biological target: T1, αv integrins (as found on HT1080 cells); assay: HT1080 cell adhesion to coated murine ICAM-4Fc (5 ug/ml), peptide 500 uM; competitor murine ICAM-4Fc
Description: FIG. 14. […] Murine ICAM-4Fc was coated at a concentration of 5 μg/ml, peptides were used at 500 μM final concentration for each peptide, and each data point is the mean of two independent assays.
as §2, with “plates.” for “plates. In peptide inhibition studies the appropriate ICAM-4Fc coating concentration for each cell line was pre-determined by titration of ICAM-4Fc and the lowest concentration at which maximal binding was achieved was used to coat the plates”

[3] = biological target: T1, αv integrins (as found on HT1080 cells); assay: HT1080 cell adhesion to coated human ICAM-4Fc (5 ug/ml); value is for the MIXTURE with control peptide SEQ ID NO: 13, each peptide 750 uM
Description: as §1, §2

[4] = biological target: T1, αv integrins (as found on HT1080 cells); assay: HT1080 cell adhesion to coated human ICAM-4Fc (7.5 ug/ml), peptide 500 uM; competitor human ICAM-4Fc
Description: FIG. 10. […] Human ICAM-4Fc was coated at a concentration of 7.5 μg/ml, peptides were used at 500 μM final concentration for each peptide, and each data point is the mean of three independent assays.
as §2, with “plates.” for “plates. In peptide inhibition studies the appropriate ICAM-4Fc coating concentration for each cell line was pre-determined by titration of ICAM-4Fc and the lowest concentration at which maximal binding was achieved was used to coat the plates”

[5] = biological target: T1, αv integrins (as found on HT1080 cells); assay: HT1080 cell adhesion to coated human ICAM-4Fc (5 ug/ml), peptide 750 uM; competitor human ICAM-4Fc
Description: as §1, §2

[6] = biological target: αMβ2 integrin (UniProt P11215 17-1152; P05107 23-769); assay: neutrophil adhesion to coated ICAM-4Fc with blocking integrin antibodies
Description: (§3) Utilising blocking β integrin subunit antibodies and our blocking ICAM-4 peptides (i.e., SEQ ID NOs: 9, 10, 11 and 13—see Example 1) in a microplate neutrophil adhesion assay. Neutrophils were purified from buffy coats (obtained from the National Blood Service, Bristol, UK) as described in Henderson et al. (1987, Biochem. J. 246: 325-329). Cell adhesion assays were performed as described in Example 1 above. […] Neutrophils were labelled with 10 μg/ml 2′,7′-bis-(2-carboxyethyl)-5-(and-6-)carboxyfluorescein acetoxymethyl ester (Sigma, Poole, UK) in assay buffer (Iscoves modified Eagle medium, 2 mM EGTA, 0.1% BSA for 15 minutes at 37° C. Neutrophils were washed with assay buffer containing 2 mM Mn²⁺. Neutrophils, at 5×10⁵ cells per well, were added to the ICAM-4Fc-coated plates for 10 minutes at 37° C., prior to being cyclically read on a fluorescence microplate reader (excitation 485 nm, emission 530 nm) and washed in assay buffer. The percentage of bound cells was calculated after each wash. Peptide and antibody inhibition was performed by incubating the cells with 500 μM peptide and 25 μg/ml antibody at 0° C. for 15 minutes before their addition to the ICAM-4 Fc coated plates. […]

[7] = biological target: T2, αLβ2 integrin (UniProt P20701 26-1170; P05107 23-769); assay: as above
T2 construct: whole, on cells; also called LFA-1; β2 integrins
Description: as §3

T1 sequence (P06756 31-1048): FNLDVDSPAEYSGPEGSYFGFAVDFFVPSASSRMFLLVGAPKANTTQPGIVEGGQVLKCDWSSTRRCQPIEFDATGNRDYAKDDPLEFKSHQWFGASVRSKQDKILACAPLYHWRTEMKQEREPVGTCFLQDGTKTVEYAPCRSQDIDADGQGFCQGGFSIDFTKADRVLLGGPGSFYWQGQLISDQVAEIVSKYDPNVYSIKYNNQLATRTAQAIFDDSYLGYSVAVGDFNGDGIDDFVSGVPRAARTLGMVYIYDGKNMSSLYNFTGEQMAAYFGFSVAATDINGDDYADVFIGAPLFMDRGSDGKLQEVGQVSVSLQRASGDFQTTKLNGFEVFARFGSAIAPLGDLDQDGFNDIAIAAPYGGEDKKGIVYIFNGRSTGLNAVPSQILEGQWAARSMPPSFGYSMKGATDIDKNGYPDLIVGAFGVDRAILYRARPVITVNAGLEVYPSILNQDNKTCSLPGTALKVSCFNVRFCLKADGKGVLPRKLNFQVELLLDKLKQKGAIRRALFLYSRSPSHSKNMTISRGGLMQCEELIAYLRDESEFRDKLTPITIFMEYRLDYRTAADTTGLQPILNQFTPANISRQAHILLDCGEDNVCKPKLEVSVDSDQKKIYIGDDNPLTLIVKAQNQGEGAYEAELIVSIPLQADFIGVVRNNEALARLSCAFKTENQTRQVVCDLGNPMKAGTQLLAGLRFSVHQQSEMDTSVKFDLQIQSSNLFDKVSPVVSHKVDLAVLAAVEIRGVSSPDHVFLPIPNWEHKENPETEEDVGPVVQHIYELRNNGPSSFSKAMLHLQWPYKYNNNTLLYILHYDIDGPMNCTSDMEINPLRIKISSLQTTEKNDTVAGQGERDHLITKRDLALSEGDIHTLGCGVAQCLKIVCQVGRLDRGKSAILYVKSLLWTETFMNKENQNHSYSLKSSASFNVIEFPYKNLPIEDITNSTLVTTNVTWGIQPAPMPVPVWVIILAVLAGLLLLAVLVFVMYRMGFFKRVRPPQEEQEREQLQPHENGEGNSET

Binder	input cells bound as % of binding to ICAM-4Fc in the absence of peptides [1] [%]	input cells bound as % of binding to murine ICAM-4Fc in the absence of peptides [2] [%]	input cells bound as % of binding to ICAM-4Fc in the absence of peptides [3] [%]	input cells bound as % of binding to ICAM-4Fc in the absence of peptides [4] [%]	input cells bound as % of binding to ICAM-4Fc in the absence of peptides [5] [%]	binding result [6]	binding result [7]
AWSSLAHCL (Nine residues of the F strand of domain 1 of mature human ICAM-4, starting at A76; also called F strand peptide) [aWssLahcl peptide (SEQ ID NO: 11)]	52		64		71		
RQGKTLRGP (Control peptide; nine residues of the D strand of domain 1 of mature human ICAM-4, starting at R56; also called D strand peptide) [rqgktlrgp peptide (SEQ ID NO: 13)]		92		97	96		
human ICAM-4Fc (Fc fusion, Expressed in COS-7 cells, purified on protein A; also called Fc fusion ICAM-4 protein; wild-type ICAM-4Fc; not shown: Fc part from the pIg vector) AQSPKGSPLAPSGTSVPFWVRMSPEFVAVQPGKSVQLNCSNSCPQPQNSSLRTPLRQGKTLRGPGWVSYQLLDVRAWSSLAHCLVTCAGKTRWATSRITAYKPPHSVILEPPVLKGRKYTLRCHVTQVFPVGYLVVTLRHGSRVIYSESLERFTGLDLANVTLTYEFAAGPRDFWQPVICHARLNLDGLVVRNSSAPITLMLAWSPAPTA						binds	binds

Further lines, results first:

input cells bound as % of binding to ICAM-4Fc in the absence of peptides [1] [%]	input cells bound as % of binding to murine ICAM-4Fc in the absence of peptides [2] [%]	input cells bound as % of binding to ICAM-4Fc in the absence of peptides [3] [%]	input cells bound as % of binding to ICAM-4Fc in the absence of peptides [4] [%]	input cells bound as % of binding to ICAM-4Fc in the absence of peptides [5] [%]	binding result [6]	binding result [7]	Binder
52	80	39	60	42			TRWATSRIT (not fully specified (residues 1, 3, 8, 9), Nine residues of the G strand of domain 1 of mature human ICAM-4, starting at T91; also called G strand peptide) [tRwATSRit peptide (SEQ ID NO: 10)]
52	60	40	46	41			SVPFWVRMS (Nine residues of the A strand of domain 1 of mature human ICAM-4, starting at S15; also called A strand peptide) [svpFWVrms peptide (SEQ ID NO: 9)]
